# B1: B-cell lymphoma/leukemia 10 (Homo sapiens), O95999 (parent)
# chain: MEPTAPSLTEEDLTEVKKDALENLRVYLCEKIIAERHFDHLRAKKILSREDTEEISCRTSSRKRAGKLLDYLQENPKGLDTLVESIRREKTQNFLIQKITDEVLKLRNIKLEHLKGLKCSSCEPFPDGATNNLSRSNSDESNFSEKLRASTVMYHPEGESSTTPFFSTNSSLNLPVLEVGRTENTIFSSTTLPRPGDPGAPPLPPDLQLEEEGTCANSSEMFLPLRSRTVSRQ
# partner: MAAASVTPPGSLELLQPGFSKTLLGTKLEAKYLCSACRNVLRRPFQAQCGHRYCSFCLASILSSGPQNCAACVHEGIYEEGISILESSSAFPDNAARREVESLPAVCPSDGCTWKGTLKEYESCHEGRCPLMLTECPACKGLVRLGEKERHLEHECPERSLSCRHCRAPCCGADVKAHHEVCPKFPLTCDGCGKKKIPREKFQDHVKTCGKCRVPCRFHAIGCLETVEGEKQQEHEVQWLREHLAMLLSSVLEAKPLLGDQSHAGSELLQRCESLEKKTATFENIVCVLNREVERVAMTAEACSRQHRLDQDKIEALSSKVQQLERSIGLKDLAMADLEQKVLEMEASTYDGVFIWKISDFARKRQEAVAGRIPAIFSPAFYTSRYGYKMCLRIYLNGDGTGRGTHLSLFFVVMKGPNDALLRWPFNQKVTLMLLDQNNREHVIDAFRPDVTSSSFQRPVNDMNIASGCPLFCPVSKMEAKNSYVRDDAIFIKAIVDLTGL
# B2: SH2 domain-containing protein 1A (Homo sapiens), O60880 (parent)
# chain: MDAVAVYHGKISRETGEKLLLATGLDGSYLLRDSESVPGVYCLCVLYHGYIYTYRVSQTETGSWSAETAPGVHKRYFRKIKNLISAFQKPDQGIVIPLQYPVEKKSSARSTQGTTGIREDPDVCLKAP
# B3: ATP synthase mitochondrial F1 complex assembly factor 2 (Homo sapiens), Q8N5M1 (parent)
# chain: MWRSCLRLRDGGRRLLNRPAGGPSASMSPGPTIPSPARAYAPPTERKRFYQNVSITQGEGGFEINLDHRKLKTPQAKLFTVPSEALAIAVATEWDSQQDTIKYYTMHLTTLCNTSLDNPTQRNKDQLIRAAVKFLDTDTICYRVEEPETLVELQRNEWDPIIEWAEKRYGVEISSSTSIMGPSIPAKTREVLVSHLASYNTWALQGIEFVAAQLKSMVLTLGLIDLRLTVEQAVLLSRLEEEYQIQKWGNIEWAHDYELQELRARTAAGTLFIHLCSESTTVKHKLLKE
# partner: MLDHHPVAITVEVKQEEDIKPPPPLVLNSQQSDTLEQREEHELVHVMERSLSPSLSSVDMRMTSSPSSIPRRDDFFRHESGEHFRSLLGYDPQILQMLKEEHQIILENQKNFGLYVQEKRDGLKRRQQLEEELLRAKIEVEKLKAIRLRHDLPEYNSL
# B4: Iodotyrosine deiodinase 1 (Homo sapiens), Q6PHW0 (parent)
# chain: MYFLTPILVAILCILVVWIFKNADRSMEKKKGEPRTRAEARPWVDEDLKDSSDLHQAEEDADEWQESEENVEHIPFSHNHYPEKEMVKRSQEFYELLNKRRSVRFISNEQVPMEVIDNVIRTAGTAPSGAHTEPWTFVVVKDPDVKHKIRKIIEEEEEINYMKRMGHRWVTDLKKLRTNWIKEYLDTAPILILIFKQVHGFAANGKKKVHYYNEISVSIACGILLAALQNAGLVTVTTTPLNCGPRLRVLLGRPAHEKLLMLLPVGYPSKEATVPDLKRKPLDQIMVTV
# partner: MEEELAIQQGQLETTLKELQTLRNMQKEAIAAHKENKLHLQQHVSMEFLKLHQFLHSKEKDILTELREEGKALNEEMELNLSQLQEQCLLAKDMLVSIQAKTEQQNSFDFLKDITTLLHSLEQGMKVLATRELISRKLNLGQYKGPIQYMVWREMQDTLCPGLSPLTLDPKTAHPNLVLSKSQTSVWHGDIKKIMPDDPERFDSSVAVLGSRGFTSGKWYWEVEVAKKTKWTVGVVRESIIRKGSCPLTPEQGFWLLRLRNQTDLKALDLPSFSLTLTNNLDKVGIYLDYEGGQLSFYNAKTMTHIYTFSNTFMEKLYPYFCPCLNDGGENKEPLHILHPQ
# B5: Prelamin-A/C (Homo sapiens), P02545-2 (parent)
# chain: METPSQRRATRSGAQASSTPLSPTRITRLQEKEDLQELNDRLAVYIDRVRSLETENAGLRLRITESEEVVSREVSGIKAAYEAELGDARKTLDSVAKERARLQLELSKVREEFKELKARNTKKEGDLIAAQARLKDLEALLNSKEAALSTALSEKRTLEGELHDLRGQVAKLEAALGEAKKQLQDEMLRRVDAENRLQTMKEELDFQKNIYSEELRETKRRHETRLVEIDNGKQREFESRLADALQELRAQHEDQVEQYKKELEKTYSAKLDNARQSAERNSNLVGAAHEELQQSRIRIDSLSAQLSQLQKQLAAKEAKLRDLEDSLARERDTSRRLLAEKEREMAEMRARMQQQLDEYQELLDIKLALDMEIHAYRKLLEGEEERLRLSPSPTSQRSRGRASSHSSQTQGGGSVTKKRKLESTESRSSFSQHARTSGRVAVEEVDEEGKFVRLRNKSNEDQSMGNWQIKRQNGDDPLLTYRFPPKFTLKAGQVVTIWAAGAGATHSPPTDLVWKAQNTWGCGNSLRTALINSTGEEVAMRKLVRSVTVVEDDEDEDGDDLLHHHHVSGSRR
# B6: Nuclear receptor subfamily 0 group B member 1 (Homo sapiens), P51843 (parent)
# chain: MAGENHQWQGSILYNMLMSAKQTRAAPEAPETRLVDQCWGCSCGDEPGVGREGLLGGRNVALLYRCCFCGKDHPRQGSILYSMLTSAKQTYAAPKAPEATLGPCWGCSCGSDPGVGRAGLPGGRPVALLYRCCFCGEDHPRQGSILYSLLTSSKQTHVAPAAPEARPGGAWWDRSYFAQRPGGKEALPGGRATALLYRCCFCGEDHPQQGSTLYCVPTSTNQAQAAPEERPRAPWWDTSSGALRPVALKSPQVVCEAASAGLLKTLRFVKYLPCFQVLPLDQQLVLVRNCWASLLMLELAQDRLQFETVEVSEPSMLQKILTTRRRETGGNEPLPVPTLQHHLAPPAEARKVPSASQVQAIKCFLSKCWSLNISTKEYAYLKGTVLFNPDVPGLQCVKYIQGLQWGTQQILSEHTRMTHQGPHDRFIELNSTLFLLRFINANVIAELFFRPIIGTVSMDDMMLEMLCTKI
# B7: Beta-crystallin A4 (Homo sapiens), P53673 (parent)
# chain: MTLQCTKSAGPWKMVVWDEDGFQGRRHEFTAECPSVLELGFETVRSLKVLSGAWVGFEHAGFQGQQYILERGEYPSWDAWGGNTAYPAERLTSFRPAACANHRDSRLTIFEQENFLGKKGELSDDYPSLQAMGWEGNEVGSFHVHSGAWVCSQFPGYRGFQYVLECDHHSGDYKHFREWGSHAPTFQVQSIRRIQQ
# partner: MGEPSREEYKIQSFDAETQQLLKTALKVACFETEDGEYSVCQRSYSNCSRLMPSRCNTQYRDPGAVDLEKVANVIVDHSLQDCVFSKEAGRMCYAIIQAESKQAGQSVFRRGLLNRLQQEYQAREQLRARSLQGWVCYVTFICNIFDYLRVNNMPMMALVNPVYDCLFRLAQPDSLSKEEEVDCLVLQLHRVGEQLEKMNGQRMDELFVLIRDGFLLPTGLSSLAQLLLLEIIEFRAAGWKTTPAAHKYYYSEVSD
# B8: EF-hand domain-containing protein 1 (Homo sapiens), Q5JVL4 (parent)
# chain: MVSNPVHGLPFLPGTSFKDSTKTAFHRSQTLSYRNGYAIVRRPTVGIGGDRLQFNQLSQAELDELASKAPVLTYGQPKQAPPADFIPAHVAFDKKVLKFDAYFQEDVPMSTEEQYRIRQVNIYYYLEDDSMSVIEPVVENSGILQGKLIKRQRLAKNDRGDHYHWKDLNRGINITIYGKTFRVVDCDQFTQVFLESQGIELNPPEKMALDPYTELRKQPLRKYVTPSDFDQLKQFLTFDKQVLRFYAIWDDTDSMYGECRTYIIHYYLMDDTVEIREVHERNDGRDPFPLLMNRQRVPKVLVENAKNFPQCVLEISDQEVLEWYTAKDFIVGKSLTILGRTFFIYDCDPFTRRYYKEKFGITDLPRIDVSKREPPPVKQELPPYNGFGLVEDSAQNCFALIPKAPKKDVIKMLVNDNKVLRYLAVLESPIPEDKDRRFVFSYFLATDMISIFEPPVRNSGIIGGKYLGRTKVVKPYSTVDNPVYYGPSDFFIGAVIEVFGHRFIILDTDEYVLKYMESNAAQYSPEALASIQNHVRKREAPAPEAESKQTEKDPGVQELEALIDTIQKQLKDHSCKDNIREAFQIYDKEASGYVDRDMFFKICESLNVPVDDSLVKELIRMCSHGEGKINYYNFVRAFSN
# partner: B1 partner
# Variants of: B1
# Conditions: with traf2_human TRAF2, Q12933
row,effect of a mutation on the interaction,Variant
1,with no effect,A5S

# Variants of: B2
# Conditions: with TNK2, Q07912-2
# Chain of TNK2, Q07912-2 (Q07912 other isoform, or with tags, fused parts or gaps): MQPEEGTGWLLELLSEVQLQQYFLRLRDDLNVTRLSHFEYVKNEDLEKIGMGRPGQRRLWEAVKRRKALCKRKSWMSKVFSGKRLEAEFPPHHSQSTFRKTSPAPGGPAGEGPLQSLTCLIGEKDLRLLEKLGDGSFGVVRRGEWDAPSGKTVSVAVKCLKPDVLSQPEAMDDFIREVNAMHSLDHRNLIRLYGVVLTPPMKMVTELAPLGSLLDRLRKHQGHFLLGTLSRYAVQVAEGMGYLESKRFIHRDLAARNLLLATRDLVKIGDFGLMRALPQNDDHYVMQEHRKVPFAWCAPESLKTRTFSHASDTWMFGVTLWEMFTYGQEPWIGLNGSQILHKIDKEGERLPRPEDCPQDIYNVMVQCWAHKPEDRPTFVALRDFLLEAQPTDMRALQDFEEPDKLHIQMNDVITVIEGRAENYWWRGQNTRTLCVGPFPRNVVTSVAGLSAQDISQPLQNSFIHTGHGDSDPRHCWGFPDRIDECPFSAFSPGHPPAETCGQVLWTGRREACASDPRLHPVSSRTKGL
row,effect of a mutation on the interaction,Variant
1,with no effect,P101L
2,with no effect,G93D
3,with no effect,R32T

# Variants of: B3
# Conditions: with FSBP
row,effect of a mutation on the interaction,Variant
1,disrupting interaction strength,W94R

# Variants of: B4
# Conditions: with TRIM69, Q86WT6-2
row,effect of a mutation on the interaction,Variant
1,with no effect,A220T

# Variants of: B5
# Conditions: with syce1_human SYCE1, Q8N0S2
# Chain of syce1_human SYCE1, Q8N0S2 (Q8N0S2 whole entry): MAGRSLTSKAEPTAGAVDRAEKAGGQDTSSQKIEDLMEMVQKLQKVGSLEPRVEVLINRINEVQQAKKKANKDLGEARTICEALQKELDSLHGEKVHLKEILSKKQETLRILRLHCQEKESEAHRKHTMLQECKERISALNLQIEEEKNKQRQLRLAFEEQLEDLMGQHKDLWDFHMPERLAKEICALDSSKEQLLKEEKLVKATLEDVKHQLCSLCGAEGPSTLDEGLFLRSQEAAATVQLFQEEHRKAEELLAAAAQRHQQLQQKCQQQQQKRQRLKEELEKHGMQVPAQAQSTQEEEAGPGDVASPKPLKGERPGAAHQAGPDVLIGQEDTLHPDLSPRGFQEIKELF
row,effect of a mutation on the interaction,Variant
1,disrupting interaction strength,L162P
2,disrupting interaction strength,R60G
3,disrupting interaction strength,R377L

# Variants of: B6
# Conditions: with stf1_human NR5A1, Q13285
# Chain of stf1_human NR5A1, Q13285 (Q13285 whole entry): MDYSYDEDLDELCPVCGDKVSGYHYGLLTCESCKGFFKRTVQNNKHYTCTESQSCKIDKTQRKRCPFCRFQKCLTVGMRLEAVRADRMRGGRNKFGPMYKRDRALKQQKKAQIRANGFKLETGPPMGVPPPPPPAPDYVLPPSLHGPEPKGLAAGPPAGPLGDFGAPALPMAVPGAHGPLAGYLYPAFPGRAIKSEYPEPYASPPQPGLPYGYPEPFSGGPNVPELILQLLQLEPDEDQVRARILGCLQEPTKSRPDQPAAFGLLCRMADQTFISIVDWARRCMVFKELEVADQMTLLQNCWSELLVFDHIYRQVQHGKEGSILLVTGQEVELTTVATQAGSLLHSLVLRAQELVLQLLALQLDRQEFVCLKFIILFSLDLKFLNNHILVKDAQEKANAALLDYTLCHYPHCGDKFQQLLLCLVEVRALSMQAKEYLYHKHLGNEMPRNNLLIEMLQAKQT
row,effect of a mutation on the interaction,Variant
1,with no effect,W105C

# Variants of: B7
# Conditions: with MIF4GD
row,effect of a mutation on the interaction,Variant
1,disrupting interaction strength,F94S
2,disrupting interaction strength,L69P
3,disrupting interaction strength,V36M

# Variants of: B8
# Conditions: with traf2_human TRAF2, Q12933
row,effect of a mutation on the interaction,Variant
1,with no effect,T508R

# Reference: IntAct's records for PubMed 25910212
